Test results as given in patent US20140363428A1 (Chugai, published 2014).
Where a chain is given by its changes, count along the chain named. Blank lines part the entries; values can stand above or below the binder they belong to.

How the values were obtained:
soluble human FcRn = molecular target: T1, soluble human FcRn (human, UniProt P55899 24-297; P61769 21-119); experiment: SPR (Biacore), pH 7.0
T1 construct: Heterodimer of alpha chain and beta2-microglobulin; also called hFcRn

[1] = molecular target: T2, soluble human FcRn (heterodimer of FcRn alpha chain and beta2-microglobulin) (human, UniProt P55899 24-297; P61769 21-119); experiment: SPR Biacore T100, antibody captured via protein L, hFcRn analyte, pH 7.0, 25 C;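 note: KD derived from kinetic ka and kd fits of sensorgrams, CM4 sensor chip, sodium phosphate NaCl Tween20 running buffer, buffer-only injection used as reference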
T2 construct: Expressed in HEK293H and purified on IgG Sepharose; also called hFcRn
Experimental: An appropriate amount of protein L (ACTIGEN) was immobilized onto Sensor chip CM4 (GE Healthcare) by the amino coupling method, and the chip was allowed to capture an antibody of interest. Then, diluted FcRn solutions and running buffer (as a reference solution) were injected to allow human FcRn to interact with the antibody captured on the sensor chip. The running buffer used comprised 50 mmol/l sodium phosphate, 150 mmol/l NaCl, and 0.05% (w/v) Tween20 (pH 7.0). FcRn was diluted using each buffer. The chip was regenerated using 10 mmol/l glycine-HCl (pH 1.5). Assays were carried out exclusively at 25 degrees C. The association rate constant ka (1/Ms) and dissociation rate constant kd (1/s), both of which are kinetic parameters, were calculated based on the sensorgrams obtained in the assays, and KD (M) of each antibody for human FcRn was determined from these values. Each parameter was calculated using Biacore T100 Evaluation Software (GE Healthcare).

B1: IgG1-F1138 (antibody)
heavy: QVQLQESGPGLVKPSETLSLTCAVSGHSISHDHAWSWVRQPPGEGLEWIGFISYSGITNYNPSLQGRVTISRDNSKNTLYLQMNSLRAEDTAVYYCARSLARTTAMDYWGEGTLVTVSSASTKGPSVFPLAPSSKSTSGGTAALGCLVKDYFPEPVTVSWNSGALTSGVHTFPAVLQSSGLYSLSSVVTVPSSSLGTQTYICNVNHKPSNTKVDKKVEPKSCDKTHTCPPCPAPELRGGPKVFLFPPKPKDTLYISRTPEVTCVVVDVSHEDPEVKFNWYVDGVEVHNAKTKPREEQYNSTYRVVSVLTVLHQDWLNGKEYKCKVSNKALPAPIEKTISKAKGQPREPQVYTLPPSRDELTKNQVSLTCLVKGFYPSDIAVEWESNGQPENNYKTTPPVLDSDGSFFLYSKLTVDKSRWQQGNVFSCSVMHEALHYHVTRKELSLSP
light: not shown
Kd (soluble human FcRn): 170 nM

B20: IgG1-F1144 (antibody)
heavy: B1 heavy with T252V, T309Q, V310P, Q313A
light: not shown
notes: VH3-IgG1 with Fc substitutions (EU numbering) + L(WT)-CK
Kd [1]: 14 nM

B22: IgG1-F1263 (antibody)
heavy: B1 heavy with R440K, E442D
light: not shown
Kd (soluble human FcRn): 120 nM

B24: IgG1-F1269 (antibody)
heavy: B1 heavy with H435D, R440K, E442D
light: not shown
Kd (soluble human FcRn): 170 nM

B26: IgG1-F1349 (antibody)
heavy: B1 heavy with V438T
light: not shown
Kd (soluble human FcRn): 340 nM

B28: IgG1-F1344 (antibody)
heavy: B1 heavy with V438T, R440K
light: not shown
Kd (soluble human FcRn): 400 nM

B29: IgG1-F1262 (antibody)
heavy: B1 heavy with R440K
light: not shown
Kd (soluble human FcRn): 130 nM

B31: IgG1-F1350 (antibody)
heavy: B1 heavy with V438F, R440K
light: not shown
Kd (soluble human FcRn): 120 nM

B32: IgG1-F1261 (antibody)
heavy: B1 heavy with E442D
light: not shown
Kd (soluble human FcRn): 140 nM

B33: IgG1-F1152 (antibody)
heavy: B1 heavy with T309Q, Q313A, S426N, V438Y, R440Q, E442S
light: not shown
notes: as for B20
Kd [1]: 74 nM

B34: IgG1-F1154 (antibody)
heavy: B1 heavy with T252V, T309Q, V310P, Q313A, S426N, R440Q, E442S
light: not shown
notes: as for B20
Kd [1]: 13 nM

B35: IgG1-F1146 (antibody)
heavy: B1 heavy with T252V, T309Q, Q313A
light: not shown
notes: as for B20
Kd [1]: 62 nM

B36: IgG1-F1148 (antibody)
heavy: B1 heavy with T309Q, Q313A, V438Y
light: not shown
notes: as for B20
Kd [1]: 76 nM

B37: IgG1-F1157 (antibody)
heavy: B1 heavy with R237L, K241S, V438Y
light: not shown
notes: as for B20
Kd [1]: 210 nM

B38: IgG1-F1305 (antibody)
heavy: B1 heavy with H435D, E442D
light: not shown
Kd (soluble human FcRn): 200 nM

B39: IgG1-F1153 (antibody)
heavy: B1 heavy with T252V, T309Q, Q313A, S426N, R440Q, E442S
light: not shown
notes: as for B20
Kd [1]: 48 nM

B40: IgG1-F1158 (antibody)
heavy: B1 heavy with V438Y
light: not shown
notes: as for B20
Kd [1]: 240 nM

B41: IgG1-F1329 (antibody)
heavy: B1 heavy with G238R, S256T
light: not shown
Kd (soluble human FcRn): 130 nM

B42: IgG1-F1331 (antibody)
heavy: B1 heavy with G238R, S256T, T258E
light: not shown
Kd (soluble human FcRn): 77 nM

B43: IgG1-F1151 (antibody)
heavy: B1 heavy with S426N, V438Y, R440Q, E442S
light: not shown
notes: as for B20
Kd [1]: 250 nM

B45: IgG1-F1306 (antibody)
heavy: B1 heavy with H435D, R440K
light: not shown
Kd (soluble human FcRn): 190 nM

B46: IgG1-F1147 (antibody)
heavy: B1 heavy with R237L, K241S, T309Q, Q313A, V438Y
light: not shown
notes: as for B20
Kd [1]: 72 nM

B47: IgG1-F1351 (antibody)
heavy: B1 heavy with V438F
light: not shown
Kd (soluble human FcRn): 160 nM

B49: IgG1-F1145 (antibody)
heavy: B1 heavy with R237L, K241S, T252V, T309Q, Q313A
light: not shown
notes: as for B20
Kd [1]: 52 nM

Next, values leading:

Kd (soluble human FcRn): 48 nM
B2: F1610 (antibody)
chain 1: B1 heavy with S256T, R257L, T258E, E260D, H435D, R440K
chain 2: DIQMTQSPSSLSASVGDSVTITCQASTDISSHLNWYQQKPGKAPELLIYYGSHLLSGVPSRFSGSGSGTDFTFTISSLEAEDAATYYCGQGNRLPYTFGQGTKVEIERTVAAPSVFIFPPSDEQLKSGTASVVCLLNNFYPREAKVQWKVDNALQSGNSQESVTEQDSKDSTYSLSSTLTLSKADYEKHKVYACEVTHQGLSSPVTKSFNRGEC

Kd (soluble human FcRn): 60 nM
B3: F1615 (antibody)
chain 1: B1 heavy with S256T, R257L, T258E, E260I, H435D, E442D
chain 2: B2 chain 2

Kd (soluble human FcRn): 41 nM
B4: F1572 (antibody)
chain 1: B1 heavy with S256T, T258E, H435K
chain 2: B2 chain 2

Kd (soluble human FcRn): 46 nM
B5: F1578 (antibody)
chain 1: B1 heavy with S256T, T258E, H435R
chain 2: B2 chain 2

Kd (soluble human FcRn): 54 nM
B6: F1579 (antibody)
chain 1: B1 heavy with S256T, T258E, H435S
chain 2: B2 chain 2

Kd (soluble human FcRn): 51 nM
B7: F1614 (antibody)
chain 1: B1 heavy with S256T, R257L, T258E, E260D, H435D, E442D
chain 2: B2 chain 2

Kd (soluble human FcRn): 49 nM
B8: F1612 (antibody)
chain 1: B1 heavy with S256T, R257L, T258E, E260D, H435D, R440K, E442D
chain 2: B2 chain 2

Kd (soluble human FcRn): 52 nM
B9: F1613 (antibody)
chain 1: B1 heavy with S256T, R257L, T258E, E260I, H435D, R440K, E442D
chain 2: B2 chain 2

Kd (soluble human FcRn): 61 nM
B10: F1605 (antibody)
chain 1: B1 heavy with S256T, R257L, T258E, H435D, E442D
chain 2: B2 chain 2

Kd (soluble human FcRn): 52 nM
B11: F1611 (antibody)
chain 1: B1 heavy with S256T, R257L, T258E, E260I, H435D, R440K
chain 2: B2 chain 2

Kd (soluble human FcRn): 41 nM
B12: F1641 (antibody)
chain 1: B1 heavy with S256T, T258E, H435A, R440K
chain 2: B2 chain 2

Kd (soluble human FcRn): 55 nM
B13: F1592 (antibody)
chain 1: B1 heavy with S256T, R257L, T258E, E260I, H435D
chain 2: B2 chain 2

Kd (soluble human FcRn): 39 nM
B14: F1643 (antibody)
chain 1: B1 heavy with S256T, T258E, H435A, R440K, E442D
chain 2: B2 chain 2

Kd (soluble human FcRn): 74 nM
B15: F1599 (antibody)
chain 1: B1 heavy with S256T, T258E, H435D, R440K, E442D
chain 2: B2 chain 2

Kd (soluble human FcRn): 55 nM
B16: F1586 (antibody)
chain 1: B1 heavy with S256T, R257L, T258E, E260D, H435D
chain 2: B2 chain 2

Kd (soluble human FcRn): 48 nM
B17: F1567 (antibody)
chain 1: B1 heavy with S256T, T258E, H435A
chain 2: B2 chain 2

Kd (soluble human FcRn): 43 nM
B18: F1576 (antibody)
chain 1: B1 heavy with S256T, T258E, H435P
chain 2: B2 chain 2

Kd (soluble human FcRn): 41 nM
B19: F1642 (antibody)
chain 1: B1 heavy with S256T, T258E, H435A, E442D
chain 2: B2 chain 2

Kd (soluble human FcRn): 40 nM
B21: F1566 (antibody)
heavy: B1 heavy with S256T, T258E, N288E, H435D, R440K
light: B2 chain 2

Kd (soluble human FcRn): 45 nM
B23: F1653 (antibody)
heavy: B1 heavy with S256T, T258E, H435S, R440K
light: B2 chain 2

Kd (soluble human FcRn): 44 nM
B25: F1655 (antibody)
heavy: B1 heavy with S256T, T258E, H435S, R440K, E442D
light: B2 chain 2

Kd (soluble human FcRn): 59 nM
B27: F1603 (antibody)
heavy: B1 heavy with S256T, R257L, T258E, H435D, R440K
light: B2 chain 2

Kd (soluble human FcRn): 45 nM
B30: F1654 (antibody)
heavy: B1 heavy with S256T, T258E, H435S, E442D
light: B2 chain 2

Kd (soluble human FcRn): 60 nM
B44: F1604 (antibody)
heavy: B1 heavy with S256T, R257L, T258E, H435D, R440K, E442D
light: B2 chain 2

Kd (soluble human FcRn): 35 nM
B48: F1601 (antibody)
heavy: B1 heavy with S256T, T258E, N288E, H435D, R440K, E442D
light: B2 chain 2
